The values below come from paper PMC5394796 (Journal of molecular biology, 2016).

This data set deals with the molecule itself. Description: disulfide-linked dimer fraction in lipid vesicles by SDS-PAGE.

B1: DR5-L TM peptide (synthetic 40-residue DR5-L transmembrane domain) (peptide)
peptide: SSPGTPASPCSLSGIIIGVTVAAVVLIVAVFVSKSLLWKK
Broadly, the stoichiometry N is the number of molecules, sites or subunits per partner or assembly. Consider B1, for which the “stoichiometry N” value came to 2.
